Experimental findings from patent publication US20150184163A1 are described below.

The target of this assay is TSLP Receptor (TSLPR), heterodimer of the IL7 receptor alpha (IL7Rα) chain and the TSLP-specific receptor chain (TSLPR; Crlf2), on mouse DRG sensory neurons (mouse) (UniProt Q8CII9). The assay is described as follows: cell-based or functional assay.
TSLP Receptor (TSLPR), heterodimer of the IL7 receptor alpha (IL7Rα) chain and the TSLP-specific receptor chain (TSLPR; Crlf2), on mouse DRG sensory neurons (mouse), sequence (Q8CII9 20-359, chain 1 of 2): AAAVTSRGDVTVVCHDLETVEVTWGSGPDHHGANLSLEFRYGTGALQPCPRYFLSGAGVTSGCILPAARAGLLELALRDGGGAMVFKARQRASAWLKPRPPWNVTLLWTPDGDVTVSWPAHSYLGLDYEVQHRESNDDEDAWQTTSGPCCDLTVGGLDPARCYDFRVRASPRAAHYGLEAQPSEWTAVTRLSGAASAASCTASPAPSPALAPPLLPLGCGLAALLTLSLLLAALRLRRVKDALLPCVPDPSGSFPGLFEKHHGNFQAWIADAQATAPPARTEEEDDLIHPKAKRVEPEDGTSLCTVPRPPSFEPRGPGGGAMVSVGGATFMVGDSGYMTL
TSLP Receptor (TSLPR), heterodimer of the IL7 receptor alpha (IL7Rα) chain and the TSLP-specific receptor chain (TSLPR; Crlf2), on mouse DRG sensory neurons (mouse), sequence (P16872 21-459, chain 2 of 2, further chain): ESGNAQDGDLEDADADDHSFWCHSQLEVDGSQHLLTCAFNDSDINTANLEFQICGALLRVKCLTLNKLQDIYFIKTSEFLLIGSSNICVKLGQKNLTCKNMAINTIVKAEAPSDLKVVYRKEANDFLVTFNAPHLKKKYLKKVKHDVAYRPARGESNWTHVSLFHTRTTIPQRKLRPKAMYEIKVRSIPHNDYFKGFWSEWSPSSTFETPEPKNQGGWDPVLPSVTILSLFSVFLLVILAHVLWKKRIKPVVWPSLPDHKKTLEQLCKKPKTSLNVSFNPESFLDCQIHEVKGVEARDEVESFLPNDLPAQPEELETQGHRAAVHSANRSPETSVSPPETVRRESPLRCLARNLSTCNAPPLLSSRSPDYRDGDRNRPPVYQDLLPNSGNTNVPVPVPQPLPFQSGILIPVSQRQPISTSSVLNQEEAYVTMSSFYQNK

For “Thymic Stromal Lymphopoietin (TSLP) (ligand)”, the prevalence of DRG neurons with increases in intracellular Ca2+ following TSLP application (ratiometric Ca2+ imaging) amounted to 4.1%.
